Experimental data as given in patent US20140274782A1, “AFFINITY REAGENTS AND METHODS FOR DETECTION, PURIFICATION, AND PROTEOMIC ANALYSIS OF METHYLATED PROTEINS” (The Board of Trustees of the Leland Stanford Junior …, priority 2013, published 2014).

T1: G9a and GLP (Homo sapiens, UniProt Q96KQ7+Q9H9B1)
T1 sequence (Q96KQ7 2-1210 limits assumed): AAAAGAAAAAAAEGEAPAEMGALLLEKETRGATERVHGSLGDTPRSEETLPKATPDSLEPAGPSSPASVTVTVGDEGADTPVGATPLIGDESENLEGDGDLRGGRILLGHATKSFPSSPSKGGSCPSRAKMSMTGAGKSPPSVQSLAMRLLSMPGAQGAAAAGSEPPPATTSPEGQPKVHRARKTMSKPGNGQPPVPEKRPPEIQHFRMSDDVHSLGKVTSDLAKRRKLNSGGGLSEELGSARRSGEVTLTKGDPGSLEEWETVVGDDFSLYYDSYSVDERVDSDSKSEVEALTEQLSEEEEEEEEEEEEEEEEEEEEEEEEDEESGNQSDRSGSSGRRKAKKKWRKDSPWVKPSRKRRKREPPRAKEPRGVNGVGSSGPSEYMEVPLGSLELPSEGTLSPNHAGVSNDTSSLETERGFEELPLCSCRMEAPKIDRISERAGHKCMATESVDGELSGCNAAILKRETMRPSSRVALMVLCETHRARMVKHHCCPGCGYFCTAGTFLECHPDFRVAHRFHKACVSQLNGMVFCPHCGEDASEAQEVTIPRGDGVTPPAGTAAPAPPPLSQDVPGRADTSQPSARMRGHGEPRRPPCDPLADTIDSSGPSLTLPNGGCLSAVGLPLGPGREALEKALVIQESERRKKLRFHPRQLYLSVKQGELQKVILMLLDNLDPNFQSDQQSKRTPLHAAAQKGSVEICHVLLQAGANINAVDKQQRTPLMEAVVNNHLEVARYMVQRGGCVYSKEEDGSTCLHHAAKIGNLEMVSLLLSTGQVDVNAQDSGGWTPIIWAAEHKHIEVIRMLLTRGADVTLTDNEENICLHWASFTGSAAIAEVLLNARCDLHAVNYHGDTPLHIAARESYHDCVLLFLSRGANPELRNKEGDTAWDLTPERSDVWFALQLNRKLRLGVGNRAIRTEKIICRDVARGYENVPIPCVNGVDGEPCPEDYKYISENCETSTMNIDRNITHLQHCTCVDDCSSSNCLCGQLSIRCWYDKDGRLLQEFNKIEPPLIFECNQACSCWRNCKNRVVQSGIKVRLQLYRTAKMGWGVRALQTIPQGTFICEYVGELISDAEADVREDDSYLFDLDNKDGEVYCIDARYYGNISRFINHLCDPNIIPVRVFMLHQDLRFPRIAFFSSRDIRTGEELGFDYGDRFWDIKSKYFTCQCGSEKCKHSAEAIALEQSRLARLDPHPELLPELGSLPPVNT
T1 sequence (Q9H9B1 2-1298 limits assumed): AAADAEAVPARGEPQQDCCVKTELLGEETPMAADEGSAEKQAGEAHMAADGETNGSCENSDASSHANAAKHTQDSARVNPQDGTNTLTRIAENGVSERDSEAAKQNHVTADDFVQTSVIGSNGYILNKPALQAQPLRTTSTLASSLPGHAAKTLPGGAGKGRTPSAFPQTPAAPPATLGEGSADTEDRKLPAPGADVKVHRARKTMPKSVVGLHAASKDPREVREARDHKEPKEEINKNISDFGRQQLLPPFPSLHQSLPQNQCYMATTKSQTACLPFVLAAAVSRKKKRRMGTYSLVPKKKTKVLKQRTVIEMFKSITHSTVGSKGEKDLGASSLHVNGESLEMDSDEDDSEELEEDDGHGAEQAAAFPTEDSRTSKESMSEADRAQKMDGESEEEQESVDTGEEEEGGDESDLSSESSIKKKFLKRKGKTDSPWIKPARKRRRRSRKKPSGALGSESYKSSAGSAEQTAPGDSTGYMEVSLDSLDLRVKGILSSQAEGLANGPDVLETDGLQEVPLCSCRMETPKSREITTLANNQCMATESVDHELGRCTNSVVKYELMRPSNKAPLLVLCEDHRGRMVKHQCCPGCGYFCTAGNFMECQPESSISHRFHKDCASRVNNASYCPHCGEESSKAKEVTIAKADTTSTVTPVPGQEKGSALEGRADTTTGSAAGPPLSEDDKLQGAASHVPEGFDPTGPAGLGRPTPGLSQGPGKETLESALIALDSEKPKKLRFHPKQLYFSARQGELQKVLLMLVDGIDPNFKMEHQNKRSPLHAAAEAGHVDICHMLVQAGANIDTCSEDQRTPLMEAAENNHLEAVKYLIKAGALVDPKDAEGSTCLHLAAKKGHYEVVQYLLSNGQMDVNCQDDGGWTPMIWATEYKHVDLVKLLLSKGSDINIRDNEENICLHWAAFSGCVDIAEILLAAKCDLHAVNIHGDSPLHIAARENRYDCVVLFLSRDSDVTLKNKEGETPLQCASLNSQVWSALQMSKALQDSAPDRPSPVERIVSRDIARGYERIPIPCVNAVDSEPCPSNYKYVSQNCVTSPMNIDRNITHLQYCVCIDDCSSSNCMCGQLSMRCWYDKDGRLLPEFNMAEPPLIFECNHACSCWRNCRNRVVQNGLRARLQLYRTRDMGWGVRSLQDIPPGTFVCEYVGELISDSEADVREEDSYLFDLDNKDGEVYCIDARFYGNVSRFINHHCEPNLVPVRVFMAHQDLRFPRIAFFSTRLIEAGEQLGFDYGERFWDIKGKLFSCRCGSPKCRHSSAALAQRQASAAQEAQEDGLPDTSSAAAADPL


Key:
3×MBT domain of L3MBTL1 = experiment: Triple SILAC pull-down, 3xMBT/3xMBTD355N ratio (cytoplasmic, nuclear and chromatin fractions of 293T cells); type: binding, human; details: SILAC ratio, pull-down 3xMBT vs 3xMBTD355N; for 3xMBT/D355N UNC Heavy: experiment with UNC0638 in heavy SILAC media; for 3xMBT/D355N UNC Light: experiment with UNC0638 in light SILAC media;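 as to all read-outs here: proteins quantified with MaxQuant, requiring at least two unique peptides and quantification in both label directions, normalized to the mean of proteins from a digested loading control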
G9a and GLP = target: T1, G9a and GLP; experiment: Triple SILAC pull-down after UNC0638 treatment of 293T cells, DMSO/UNC0638 ratio of protein captured by 3×MBT; type: cell-based; design: endogenous in cells; host or cells: HEK 293T; details: for Relative to UNC0638 UNC Heavy / Relative to UNC0638 UNC Light: SILAC ratio DMSO/UNC0638 of protein pulled down with 3xMBT; for Relative to UNC0638 UNC Heavy: UNC0638 in heavy SILAC media; for Relative to UNC0638 UNC Light: UNC0638 in light SILAC media; for Relative to UNC0638 Average: average of UNC Light and UNC Heavy experiments;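 as to all read-outs here: mass spectrometry (Q-Exactive) SILAC quantitation, DMSO/UNC0638 ratio computed after subtracting 3×MBTD355N mutant pull-down background, only proteins with at least twofold 3×MBT over mutant signal considered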

Molecule	3xMBT/D355N UNC Heavy (3×MBT domain of L3MBTL1) [log base 2]	3xMBT/D355N UNC Light (3×MBT domain of L3MBTL1) [log base 2]	Relative to UNC0638 UNC Heavy (G9a and GLP) [log base 2]	Relative to UNC0638 UNC Light (G9a and GLP) [log base 2]	Relative to UNC0638 Average (G9a and GLP) [log base 2]	Candidate G9a/GLP target (G9a and GLP; reduced association with 3xMBT after UNC0638 treatment)
CPSF3 (protein, UniProt Q9UKF6 2-684, looked up) Cleavage and polyadenylation …: SAIPAEESDQLLIRPLGAGQEVGRSCIILEFKGRKIMLDCGIHPGLEGMDALPYIDLIDPAEIDLLLISHFHLDHCGALPWFLQKTSFKGRTFMTHATKAIYRWLLSDYVKVSNISADDMLYTETDLEESMDKIETINFHEVKEVAGIKFWCYHAGHVLGAAMFMIEIAGVKLLYTGDFSRQEDRHLMAAEIPNIKPDILIIESTYGTHIHEKREEREARFCNTVHDIVNRGGRGLIPVFALGRAQELLLILDEYWQNHPELHDIPIYYASSLAKKCMAVYQTYVNAMNDKIRKQININNPFVFKHISNLKSMDHFDDIGPSVVMASPGMMQSGLSRELFESWCTDKRNGVIIAGYCVEGTLAKHIMSEPEEITTMSGQKLPLKMSVDYISFSAHTDYQQTSEFIRALKPPHVILVHGEQNEMARLKAALIREYEDNDEVHIEVHNPRNTEAVTLNFRGEKLAKVMGFLADKKPEQGQRVSGILVKRNFNYHILSPCDLSNYTDLAMSTVKQTQAIPYTGPFNLLCYQLQKLTGDVEELEIQEKPALKVFKNITVIQEPGMVVLEWLANPSNDMYADTVTTVILEVQSNPKIRKGAVQKVSKKLEMHVYSKRLEIMLQDIFGEDCVSVKDDSILSVTVDGKTANLNLETRTVECEEGSEDDESLREMVELAAQRLYEALTPVH	3.39	0.51	0.30	0.06	0.18	
CPSF2 (protein, UniProt Q9P2I0 1-782, looked up) Cleavage and polyadenylation …: MTSIIKLTTLSGVQEESALCYLLQVDEFRFLLDCGWDEHFSMDIIDSLRKHVHQIDAVLLSHPDPLHLGALPYAVGKLGLNCAIYATIPVYKMGQMFMYDLYQSRHNTEDFTLFTLDDVDAAFDKIQQLKFSQIVNLKGKGHGLSITPLPAGHMIGGTIWKIVKDGEEEIVYAVDFNHKREIHLNGCSLEMLSRPSLLITDSFNATYVQPRRKQRDEQLLTNVLETLRGDGNVLIAVDTAGRVLELAQLLDQIWRTKDAGLGVYSLALLNNVSYNVVEFSKSQVEWMSDKLMRCFEDKRNNPFQFRHLSLCHGLSDLARVPSPKVVLASQPDLECGFSRDLFIQWCQDPKNSIILTYRTTPGTLARFLIDNPSEKITEIELRKRVKLEGKELEEYLEKEKLKKEAAKKLEQSKEADIDSSDESDIEEDIDQPSAHKTKHDLMMKGEGSRKGSFFKQAKKSYPMFPAPEERIKWDEYGEIIKPEDFLVPELQATEEEKSKLESGLTNGDEPMDQDLSDVPTKCISTTESIEIKARVTYIDYEGRSDGDSIKKIINQMKPRQLIIVHGPPEASQDLAECCRAFGGKDIKVYMPKLHETVDATSETHIYQVRLKDSLVSSLQFCKAKDAELAWIDGVLDMRVSKVDTGVILEEGELKDDGEDSEMQVEAPSDSSVIAQQKAMKSLFGDDEKETGEESEIIPTLEPLPPHEVPGHQSVFMNEPRLSDFKQVLLREGIQAEFVGGVLVCNNQVAVRRTETGRIGLEGCLCQDFYRIRDLLYEQYAIV	1.85	4.20	0.15	3.16	1.65	✓
HNRNPR (protein, UniProt O43390 2-633, looked up) Heterogeneous nuclear …: ANQVNGNAVQLKEEEEPMDTSSVTHTEHYKTLIEAGLPQKVAERLDEIFQTGLVAYVDLDERAIDALREFNEEGALSVLQQFKESDLSHVQNKSAFLCGVMKTYRQREKQGSKVQESTKGPDEAKIKALLERTGYTLDVTTGQRKYGGPPPDSVYSGVQPGIGTEVFVGKIPRDLYEDELVPLFEKAGPIWDLRLMMDPLSGQNRGYAFITFCGKEAAQEAVKLCDSYEIRPGKHLGVCISVANNRLFVGSIPKNKTKENILEEFSKVTEGLVDVILYHQPDDKKKNRGFCFLEYEDHKSAAQARRRLMSGKVKVWGNVVTVEWADPVEEPDPEVMAKVKVLFVRNLATTVTEEILEKSFSEFGKLERVKKLKDYAFVHFEDRGAAVKAMDEMNGKEIEGEEIEIVLAKPPDKKRKERQAARQASRSTAYEDYYYHPPPRMPPPIRGRGRGGGRGGYGYPPDYYGYEDYYDDYYGYDYHDYRGGYEDPYYGYDDGYAVRGRGGGRGGRGAPPPPRGRGAPPPRGRAGYSQRGAPLGPPRGSRGGRGGPAQQQRGRGSRGSRGNRGGNVGGKRKADGYNQPDSKRRQTNNQQNWGSQPIAQQPLQQGGDYSGNYGYNNDNQEFYQDTYGQQWK	3.20	3.60	0.12	0.24	0.18	
SRP72 (protein, UniProt O76094 2-671, looked up) Signal recognition particle …: ASGGSGGVSVPALWSEVNRYGQNGDFTRALKTVNKILQINKDDVTALHCKVVCLIQNGSFKEALNVINTHTKVLANNSLSFEKAYCEYRLNRIENALKTIESANQQTDKLKELYGQVLYRLERYDECLAVYRDLVRNSQDDYDEERKTNLSAVVAAQSNWEKVVPENLGLQEGTHELCYNTACALIGQGQLNQAMKILQKAEDLCRRSLSEDTDGTEEDPQAELAIIHGQMAYILQLQGRTEEALQLYNQIIKLKPTDVGLLAVIANNIITINKDQNVFDSKKKVKLTNAEGVEFKLSKKQLQAIEFNKALLAMYTNQAEQCRKISASLQSQSPEHLLPVLIQAAQLCREKQHTKAIELLQEFSDQHPENAAEIKLTMAQLKISQGNISKACLILRSIEELKHKPGMVSALVTMYSHEEDIDSAIEVFTQAIQWYQNHQPKSPAHLSLIREAANFKLKYGRKKEAISDLQQLWKQNPKDIHTLAQLISAYSLVDPEKAKALSKHLPSSDSMSLKVDVEALENSAGATYIRKKGGKVTGDSQPKEQGQGDLKKKKKKKKGKLPKNYDPKVTPDPERWLPMRERSYYRGRKKGKKKDQIGKGTQGATAGASSELDASKTVSSPPTSPRPGSAATVSASTSNIIPPRHQKPAGAPATKKKQQQKKKKGGKGGW	1.68	2.90	0.27	0.10	0.19	
